Reference: patent US20210283233A1

Target: T1, rPfSEP-1A (recombinant polypeptide encoded by nt 2,431-3,249 of PF3D7_1021800, aa 810-1083 of PfSEP-1)
T1 chain: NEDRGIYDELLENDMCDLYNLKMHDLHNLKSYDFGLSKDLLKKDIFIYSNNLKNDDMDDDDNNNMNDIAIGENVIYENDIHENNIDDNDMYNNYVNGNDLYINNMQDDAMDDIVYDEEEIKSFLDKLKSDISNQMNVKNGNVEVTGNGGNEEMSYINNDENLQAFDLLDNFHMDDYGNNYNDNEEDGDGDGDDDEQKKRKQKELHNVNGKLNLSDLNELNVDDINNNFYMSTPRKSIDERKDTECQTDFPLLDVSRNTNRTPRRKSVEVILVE

B1: rPfCDPK-5 (recombinant Plasmodium falciparum calcium-dependent protein kinase 5, PF3D7_1337800) (protein)
chain: MKETEVEDMDTNRKDGKIKKKEKIVNMKNEEVKSTTKSTLADSDEDYSIITLCTKCLSKKLEDNKNRIILDSKAFKDNRLKGRCSVSSNEDPLDNKLNLSPYFDRSQIIQEIILMNNDELSDVYEIDRYKLGKGSYGNVVKAVSKRTGQQRAIKIIEKKKIHNIERLKREILIMKQMDHPNIIKLYEVYEDNEKLYLVLELCDGGELFDKIVKYGSFSEYEAYKIMKQIFSALYYCHSKNIMHRDLKPENILYVDNTEDSPIQIIDWGFASKCMNNHNLKSVVGTPYYIAPEILRGKYDKRCDIWSSGVIMYILLCGYPPFNGKNNDEILKKVEKGEFVFDSNYWARVSDDAKDLICQCLNYNYKERIDVEQVLKHRWFKKFKSNNLIINKTLNKTLIEKFKEFHKLCKIKKLAVTCIAYQLNEKDIGKLKKTFEAFDHNGDGVLTISEIFQCLKVNDNEFDRELYFLLKQLDTDGNGLIDYTEFLAACLDHSIFQQDVICRNAFNVFDLDGDGVITKDELFKILSFSAVQVSFSKEIIENLIKEVDSNNDGFIDYDEFYKMMTGVKE
  phosphorylation: rPfCDPK-5 was found to phosphorylate rPfSEP-1A
